For one substance, T1/2 (cleavage rate) results are on record in patent US20090325168.

Series [1] relates to T1, 6-TMR-K-NorFES-KGY-6-TMR.
T1 sequence: KDAIPXSIPKGY

Series [2] relates to T2, 6-TMR-NorFES-KGY-DER.
T2 sequence: DAIPXSIPKGY

Series [3] relates to T3, Fl-NorFES-KGY-Fl (fluorescein-NorFES-fluorescein).
T3 sequence: DAIPXSIPKGY

Series [4] relates to T4, 6-TMR-NorFES-KGY-6-TMR.
T4 sequence: DAIPXSIPKGY

Series [5] has as its system T5, 6-TMR-K-NorFES-KGY-DER.
T5 sequence: KDAIPXSIPKGY

In series [6] the test system is T6, DER-NorFES-KGY-DER.
T6 sequence: DAIPXSIPKGY

For the substance elastase, the T1/2 (cleavage rate) in series [1] was 1.4 min; in series [2], 1.33 min; in series [3] it was 0.3 min; in series [4], 0.733 min; in series [5], 2.08 min; in series [6], 2.53 min.
